According to publication PMC7949049 (The Journal of Biological Chemistry, 2020):
Like-named read-outs stand apart in the source and are kept apart here. Blank lines part the entries; values can stand above or below the molecule they belong to. Positions of bridges follow the written chain, without caps; N, C: chain ends. Non-standard residues stand in square brackets, D forms with d. Residues, ends and D or L forms follow the SMILES beside them. No end group written: not given here. *: point of attachment. 5FAM = O=C1OC2(c3ccc(O)cc3Oc3cc(O)ccc32)c2ccc(C(=O)*)cc21; S5 = C=CCCC[C@](C)(N)C(=O)O

Key:
[1] = target: SP1 stapled peptide (RLIP76) 423-446 (Homo sapiens) (UniProt Q15311); details: cited from earlier work
[2] = tested on: V5-RalB Q72L / endogenous Sec5 complex; assay: Coimmunoprecipitation of RalB/Sec5 in HEK293T cell lysate; format: biochemical; details: peptide 1 h at 4 °C, anti-V5 IP, western blot
Method: (§1) 3 × 10^6 HEK293T cells were seeded in 10 cm dishes 48 h before the end point, in DMEM supplemented with 10% FBS. […] Dishes were lysed in 1 ml lysis buffer (50 mM Tris-HCl pH 7.8, 150 mM NaCl, 1% Triton, 1 mM EDTA, 1 mM sodium orthovanadate, 1 mM β-glycerophosphate, and protease inhibitor cocktail (Sigma-Aldrich). Lysates (1 ml) were centrifuged at 17,000g for 20 min and added to Protein G Dynabeads (30 μl, Invitrogen) preincubated with anti-V5 antibody (1 μg, R960-25, Invitrogen). Peptides, at the concentrations indicated in the results, were added and incubated with rotation for 1 h at 4 °C. Precipitated complexes were washed with lysis buffer (3 × 500 μl). Samples were resolved by SDS-PAGE and transferred to PVDF membranes (Immobilon-P). Membranes were probed by immunoblotting with the following primary antibodies: anti-V5-HRP (R961-25, Invitrogen), anti-flag-HRP (A8592, Sigma-Aldrich), and anti-Sec5 (EPR9420, Abcam).

[3] = tested on: V5-RalB Q72L / flag-RLIP76 complex; assay: Coimmunoprecipitation of RalB/RLIP76 in HEK293T cell lysate; format: biochemical; details: V5-RalB Q72L and flag-RLIP76, peptide 1 h at 4 °C, anti-V5 IP, western blot
Method: as §1

RalA·GTP = target: T1, RalA·GTP (Homo sapiens, UniProt P11233, Q72L); assay: Competition SPA, RalA against immobilized His-tagged wild-type RLIP76 RBD; format: binding
T1 construct: RalA (pMAT10, residues 1–184, Q72L); His6-MBP (cleaved yes); made in house; host or cells: E. coli (inferred from the pMAT10/pGEX vectors)
T1 sequence (P11233 1-184 Q72L): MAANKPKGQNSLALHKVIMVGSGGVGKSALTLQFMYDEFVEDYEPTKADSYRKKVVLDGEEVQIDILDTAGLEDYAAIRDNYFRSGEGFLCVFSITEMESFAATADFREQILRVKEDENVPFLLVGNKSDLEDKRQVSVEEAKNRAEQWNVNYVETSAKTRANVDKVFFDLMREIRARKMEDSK

[4] = target: SP1 stapled peptide (RLIP76) 423-446 (Homo sapiens) (UniProt Q15311); details: cited from earlier work; remark: listed apart in the source
Cdc42 = target: T2, Cdc42 (Homo sapiens, UniProt P60953, Q61L); assay: Direct-binding fluorescence polarization, Cdc42; details: 20 nM FAM-labelled non-solubilized peptide; n ≥ 2; ± standard error from curve fitting; read-out: Kd Cdc42, FP (Table S1)
T2 construct: Cdc42 (pGEX-2T, 1–184, Q61L); GST (cleaved yes); made in house
Method: (§2) FP experiments were performed on a BMG Labtech Pherastar fluorimeter at 298 K with excitation at 485 nm and emission at 520 nm as described previously ([34]), using 20 nM FAM-labeled peptide. Plates were read after 30 min incubation at room temperature. Data were fitted to a single-site binding model using nonlinear regression analysis in GraphPad prism 8.4 to obtain Kd values and their standard errors.

RhoA·GMPPNP = target: T3, RhoA·GMPPNP (Homo sapiens, UniProt P61586, F25N/Q63L); assay: Direct-binding fluorescence polarization, RhoA; details: 20 nM FAM-labelled non-solubilized peptide; n ≥ 2; ± standard error from curve fitting; read-out: Kd RhoA, FP (Table S1)
T3 construct: RhoA (pGEX-2T, 1–186, F25N/Q63L); GST (cleaved yes); made in house
Method: as §2

R-Ras (Homo sapiens) = R-Ras (Homo sapiens) (UniProt P10301); details: cited from earlier work
RalA (Homo sapiens) = RalA (Homo sapiens) (UniProt P11233); details: cited from earlier work
RalB (Homo sapiens) = RalB (Homo sapiens) (UniProt P11234); details: cited from earlier work
[5] = target: SP1 stapled peptide (RLIP76) 423-446 (Homo sapiens) (UniProt Q15311); details: cited from earlier work; remark: listed apart in the source
[6] = target: T4, RalB (residues 1–185, Q72L) (UniProt P11234 1-185, Q72L); assay: fluorescence polarisation; 20 nM FAM-labeled peptide, varying concentrations of GMPPNP-bound small GTPases, 298 K, single-site model; details: both partners purified
T4 construct: Loaded with [3H]GTP for SPA, with GMPPNP for ITC, FP and crystallisation; also called RalB·GTP; source: expressed from pMAT10 as His6-MBP fusion, cleaved from its tag as described previously
T4 sequence (looked up): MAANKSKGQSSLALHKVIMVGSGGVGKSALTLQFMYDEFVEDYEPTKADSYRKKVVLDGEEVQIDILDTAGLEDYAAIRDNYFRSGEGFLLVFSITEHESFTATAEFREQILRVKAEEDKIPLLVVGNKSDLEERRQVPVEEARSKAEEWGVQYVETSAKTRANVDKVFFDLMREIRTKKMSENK

[7] = target: T5, RalA (residues 1–184, Q72L) (UniProt P11233 1-184, Q72L); assay: as above; details: both partners purified
T5 construct: RalA small GTPase, residues 1-184, constitutively active Q72L; Loaded with [3H]GTP for SPA, with GMPPNP or GDP for fluorescence polarisation; also called RalA·GTP; [3H]-GTP RalA; source: expressed from pMAT10 as His6-MBP fusion, cleaved from its tag as described previously
T5 sequence (looked up): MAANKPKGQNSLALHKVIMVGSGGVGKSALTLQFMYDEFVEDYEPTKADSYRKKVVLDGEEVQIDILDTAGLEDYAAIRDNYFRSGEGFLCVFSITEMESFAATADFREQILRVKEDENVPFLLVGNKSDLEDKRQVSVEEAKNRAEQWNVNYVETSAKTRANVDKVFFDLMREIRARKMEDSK

[8] = target: RalA (residues 1–184, Q72L) (UniProt P11233); assay: scintillation proximity assay (competition); His-tagged wild-type RLIP76 RBD immobilised on SPA beads, fixed [3H]GTP·RalA (100 nM) or [3H]GTP·RalB (250 nM), competitor RBD or peptide titrated; pure competition model, apparent Kd (Ki)
[9] = target: T4, RalB (residues 1–185, Q72L); assay: as above; details: both partners purified
[10] = target: T5, RalA (residues 1–184, Q72L); assay: as above; details: both partners purified
[11] = target: T5, RalA (residues 1–184, Q72L); assay: scintillation proximity assay (competition); GST-tagged Sec5 RBD immobilised on SPA beads, fixed [3H]-GTP RalA, peptides or RLIP76 RBD titrated; pure competition model, apparent Kd (Ki); details: both partners purified

Chain of SP1 stapled peptide (RLIP76) 423-446 (Homo sapiens) (Q15311 423-446): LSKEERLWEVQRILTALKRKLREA
Chain of R-Ras (Homo sapiens) (P10301 1-215): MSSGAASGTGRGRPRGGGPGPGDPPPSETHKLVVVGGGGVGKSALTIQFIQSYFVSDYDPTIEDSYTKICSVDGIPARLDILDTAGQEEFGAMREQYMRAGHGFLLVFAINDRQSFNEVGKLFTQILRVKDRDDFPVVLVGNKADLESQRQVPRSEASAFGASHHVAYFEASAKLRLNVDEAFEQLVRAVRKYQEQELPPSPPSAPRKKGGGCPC
T3 sequence (P61586 1-186 F25N/Q63L): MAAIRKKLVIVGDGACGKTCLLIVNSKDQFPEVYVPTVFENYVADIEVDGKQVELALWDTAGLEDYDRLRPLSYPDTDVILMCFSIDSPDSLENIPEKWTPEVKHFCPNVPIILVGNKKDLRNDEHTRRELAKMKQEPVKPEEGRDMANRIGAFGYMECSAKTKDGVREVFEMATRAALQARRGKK
T2 sequence (P60953 1-184 Q61L, species assumed): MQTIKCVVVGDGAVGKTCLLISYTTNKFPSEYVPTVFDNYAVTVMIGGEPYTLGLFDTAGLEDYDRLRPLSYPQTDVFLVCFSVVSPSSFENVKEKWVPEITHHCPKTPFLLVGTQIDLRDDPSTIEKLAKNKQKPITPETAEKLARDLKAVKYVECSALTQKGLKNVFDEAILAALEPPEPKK

Molecule: RalB (from UniProt P11234)
- Kd [1]: 5 µM

- Kd (RalA·GTP): > 100 µM
- Kd RalA·GTP, Competition SPA (RLIP76) (RalA·GTP; peptides titrated into [3H]-GTP RalA (100 nM) and His-tagged wild-type RLIP76 RBD on SPA beads, apparent Kd (Ki), ± standard error from curve fitting): very weak binding
Molecule: CC[C@H](C)[C@H](NC(=O)[C@H](CCCNC(=N)N)NC(=O)[C@H](CCC(N)=O)NC(=O)[C@H](CCC(=O)O)NC(=O)[C@H](CCC(=O)O)NC(=O)[C@H](C)NC(=O)[C@H](CC(C)C)NC(=O)[C@]1(C)CCCC=CCCC[C@](C)(NC(=O)[C@@H](N)CC(C)C)C(=O)N[C@@H](CCCCN)C(=O)N[C@@H](CCC(=O)O)C(=O)N[C@@H](CCC(=O)O)C(=O)N1)C(=O)N[C@@H](CCCCN)C(=O)N[C@H](C(=O)N[C@@H](C)C(=O)N[C@@H](CCC(=O)O)C(=O)N[C@@H](CCCCN)C(=O)N[C@@H](CCCNC(=N)N)C(=O)N[C@@H](CCCCN)C(=O)N[C@@H](CCCCN)C(=O)N[C@@H](CCCNC(=N)N)C(=O)N[C@@H](CCC(=O)O)C(=O)N[C@@H](C)C(N)=O)[C@@H](C)O [W430A-sol] (H-L[S5]KEE[S5]LAEEQRIKTAEKRKKREA-NH2; staple 2-6; N-terminus assumed)
- disruption of RalB–Sec5 complex in cell lysate [2]: did not inhibit complex formation
- disruption of RalB–RLIP76 complex in cell lysate [3]: did not inhibit complex formation

Molecule: R-Ras (from UniProt P10301)
- Kd [4]: 30 µM

- Kd (Cdc42): 6.11 ± 1.67 µM
- Kd (RhoA·GMPPNP): 12.5 ± 2.2 nM
Molecule: CC[C@H](C)[C@H](NC(=O)[C@H](CCCNC(=N)N)NC(=O)[C@H](CC(C)C)NC(=O)[C@@H](NC(=O)[C@H](CCC(=O)O)NC(=O)[C@H](Cc1c[nH]c2ccccc12)NC(=O)[C@H](CC(C)C)NC(=O)[C@]1(C)CCCC=CCCC[C@](C)(NC(=O)[C@H](CC(C)C)NC(=O)c2ccc3c(c2)C(=O)OC32c3ccc(O)cc3Oc3cc(O)ccc32)C(=O)N[C@@H](CCCCN)C(=O)N[C@@H](CCC(=O)O)C(=O)N[C@@H](Cc2c[nH]cn2)C(=O)N1)C(C)C)C(=O)N[C@@H](CC(C)C)C(=O)N[C@H](C(=O)N[C@@H](C)C(=O)N[C@@H](CC(C)C)C(=O)N[C@@H](CCCNC(=N)N)C(=O)N[C@@H](CCCNC(=N)N)C(=O)N[C@@H](CCCCN)C(=O)N[C@@H](CC(C)C)C(=O)N[C@@H](CCCNC(=N)N)C(=O)N[C@@H](CCC(=O)O)C(=O)N[C@@H](C)C(N)=O)[C@@H](C)O [HLR-SP1] (5FAM-L[S5]KEH[S5]LWEVLRILTALRRKLREA-NH2; staple 2-6)

Molecule: SP1 stapled peptide 423-446 (from UniProt Q15311)
- Kd (R-Ras (Homo sapiens)): 30 µM
- Kd (RalA (Homo sapiens)): 14 µM
- Kd (RalB (Homo sapiens)): 5 µM

Molecule: RalA (from UniProt P11233)
- Kd [5]: 14 µM

- Kd [6]: 21.1 µM
- Kd [7]: 16.6 µM
B1: FAM-labeled HLR-sol stapled peptide (peptide)
chain: L[S5]KEH[S5]LWEELRIKTAERRKKREA-NH2
modifications: staple 2-6; not fully specified (N-terminus); also: 5-carboxyfluorescein (FAM) label, site not given here

- Kd [8]: 3.02 µM
- Kd [9]: 6.97 µM
B2: RLIP76 RBD WDASQSR mutant (domain or fragment)
chain: ETQAGIKEEIRRQEFLLNSLHRDLQGGIKDLSKWDRAWEVSQILSALRRKLREA
notes: RLIP76 residues 423-446 (helix α2); Selected by CIS display; source: E. coli, recombinant; cleaved from its tag

- Kd [6]: 24.4 µM
- Kd [7]: 19.8 µM
B3: FAM-labeled L-sol stapled peptide (peptide)
chain: L[S5]KEE[S5]LWEELRIKTAEKRKKREA-NH2
modifications: staple 2-6; not fully specified (N-terminus); also: 5-carboxyfluorescein (FAM) label, site not given here

- Kd [10]: 3.09 µM
- Kd [11]: 1810 nM
B4: L-sol stapled peptide (peptide)
chain: L[S5]KEE[S5]LWEELRIKTAEKRKKREA-NH2
modifications: staple 2-6; N-terminus assumed
SMILES: CC[C@H](C)[C@H](NC(=O)[C@H](CCCNC(=N)N)NC(=O)[C@H](CC(C)C)NC(=O)[C@H](CCC(=O)O)NC(=O)[C@H](CCC(=O)O)NC(=O)[C@H](Cc1c[nH]c2ccccc12)NC(=O)[C@H](CC(C)C)NC(=O)[C@]1(C)CCCC=CCCC[C@](C)(NC(=O)[C@@H](N)CC(C)C)C(=O)N[C@@H](CCCCN)C(=O)N[C@@H](CCC(=O)O)C(=O)N[C@@H](CCC(=O)O)C(=O)N1)C(=O)N[C@@H](CCCCN)C(=O)N[C@H](C(=O)N[C@@H](C)C(=O)N[C@@H](CCC(=O)O)C(=O)N[C@@H](CCCCN)C(=O)N[C@@H](CCCNC(=N)N)C(=O)N[C@@H](CCCCN)C(=O)N[C@@H](CCCCN)C(=O)N[C@@H](CCCNC(=N)N)C(=O)N[C@@H](CCC(=O)O)C(=O)N[C@@H](C)C(N)=O)[C@@H](C)O
